In paper PMC10404369, “Epithelial cell adhesion molecule (EpCAM) regulates HGFR signaling to promote colon cancer progression and metastasis” (Journal of Translational Medicine, 2023):
One block for each binder: values may come before it.

Legend:
[1] = target: T1, HGFRECD-His recombinant protein (human, UniProt P08581 25-932); experiment: pull-down; EpEX-Fc and HGFR-His recombinant protein (2.5 μg/ml); IP with Dynabeads Protein G, Western blotting with anti-6× His tag antibody; settings: both partners purified
T1 construct: human HGFR (c-MET) recombinant protein, extracellular domain; also called HGFR-His; HGFR-His recombinant protein; source: bought: Sino Biological
T1 sequence (P08581 25-932): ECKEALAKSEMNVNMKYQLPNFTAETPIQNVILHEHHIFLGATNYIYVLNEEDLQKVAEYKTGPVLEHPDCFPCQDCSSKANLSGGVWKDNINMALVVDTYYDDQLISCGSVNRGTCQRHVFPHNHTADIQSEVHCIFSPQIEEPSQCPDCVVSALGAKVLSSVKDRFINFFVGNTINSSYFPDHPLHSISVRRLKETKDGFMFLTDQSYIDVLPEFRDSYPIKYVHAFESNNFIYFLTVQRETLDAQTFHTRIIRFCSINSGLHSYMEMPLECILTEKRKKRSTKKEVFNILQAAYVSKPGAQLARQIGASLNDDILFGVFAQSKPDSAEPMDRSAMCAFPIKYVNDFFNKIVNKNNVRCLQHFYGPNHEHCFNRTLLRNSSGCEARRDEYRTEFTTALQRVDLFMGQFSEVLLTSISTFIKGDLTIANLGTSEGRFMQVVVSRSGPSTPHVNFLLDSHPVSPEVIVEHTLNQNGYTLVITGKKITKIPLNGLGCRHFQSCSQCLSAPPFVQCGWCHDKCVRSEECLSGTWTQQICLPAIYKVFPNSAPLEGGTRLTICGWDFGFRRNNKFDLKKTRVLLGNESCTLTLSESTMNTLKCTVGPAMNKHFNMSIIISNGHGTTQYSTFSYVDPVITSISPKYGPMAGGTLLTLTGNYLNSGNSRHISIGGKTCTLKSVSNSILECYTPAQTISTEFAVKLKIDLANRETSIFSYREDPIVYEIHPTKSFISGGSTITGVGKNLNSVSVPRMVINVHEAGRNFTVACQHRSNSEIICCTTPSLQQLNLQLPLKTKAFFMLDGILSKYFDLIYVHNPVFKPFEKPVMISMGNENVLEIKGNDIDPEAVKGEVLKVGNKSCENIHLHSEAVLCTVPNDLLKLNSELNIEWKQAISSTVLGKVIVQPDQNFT

[2] = target: T1, HGFRECD-His recombinant protein; experiment: ELISA; HGFR-His recombinant protein (2 μg/ml) added to plates coated with EGF-like-domain deletion mutant-Fc (1 μg/ml); TMB colorimetric peroxidase assay; settings: both partners purified

- binding result [1]: binds
B1: EpEX-Fc recombinant protein (Fc fusion, human, UniProt P16422 24-265, looked up)
chain: QEECVCENYKLAVNCFVNNNRQCQCTSVGAQNTVICSKLAAKCLVMKAEMNGSKLGRRAKPEGALQNNDGLYDPDCDESGLFKAKQCNGTSMCWCVNTAGVRRTDKDTEITCSERVRTYWIIIELKHKAREKPYDSKSLRTALQKEITTRYQLDPKFITSILYENNVITIDLVQNSSQKTQNDVDIADVAYYFEKDVKGESLFHSKKMDLTVNGEQLDLDPGQTLIYYVDEKAPEFSMQGLK
notes: also called recombinant EpEX-Fc

- binding result [2]: binds
B2: EpEX_(ΔEGFII)-Fc (Fc fusion, human, UniProt P16422 24-265, looked up)
chain: QEECVCENYKLAVNCFVNNNRQCQCTSVGAQNTVICSKLAAKSERVRTYWIIIELKHKAREKPYDSKSLRTALQKEITTRYQLDPKFITSILYENNVITIDLVQNSSQKTQNDVDIADVAYYFEKDVKGESLFHSKKMDLTVNGEQLDLDPGQTLIYYVDEKAPEFSMQGLK
notes: EpEX, extracellular domain of EpCAM, with EGF-like domain II (amino acids 66–135) deleted; also called EGF-like-domain deletion mutant-Fc

- binding result [2]: binds
B3: EpEX_(ΔEGFI)-Fc (Fc fusion, human, UniProt P16422 24-265, looked up)
chain: QEESKLAAKCLVMKAEMNGSKLGRRAKPEGALQNNDGLYDPDCDESGLFKAKQCNGTSMCWCVNTAGVRRTDKDTEITCSERVRTYWIIIELKHKAREKPYDSKSLRTALQKEITTRYQLDPKFITSILYENNVITIDLVQNSSQKTQNDVDIADVAYYFEKDVKGESLFHSKKMDLTVNGEQLDLDPGQTLIYYVDEKAPEFSMQGLK
notes: EpEX, extracellular domain of EpCAM, with EGF-like domain I (amino acids 27–59) deleted; also called EGF-like-domain deletion mutant-Fc
